Reference: US20250355001A1 (GTINVENT, published 2025)
Changes are numbered by the printed parent chain. Read-outs that look alike come from different tables or passages of the source.

Assays:
[1] = target: T1, full length human tau protein 2N4R (hT40) (human, UniProt P10636 1-758); test: SPR, hT40 immobilised, mAb analyte
T1 construct: recombinant; also called T441
Description: For anti-tau mAb SPR measurements, htau40 was conjugated to the surface of a CM5 sensor chip using amine coupling as explained previously. Briefly, 2 μg/mL htau40 in 10 mM Sodium acetate buffer (pH 4.0) was passed over the activated chip surface (EDC/NHS) in flow cell 2 for a period for 45 s followed by blocking with 1 M ethanolamine-HCl PH 8.5. Flow cell 1 was set up as reference control and blocked simultaneously. Final immobilisation level of htau40 (Rmax) was approximately 250 RU. […] The mAb was added for a 120 s association period and 600 s dissociation period followed by a regeneration cycle of 30 s injection of glycine buffer pH 1.5 in between each cycle. Binding responses were analysed in Biacore X100 evaluation software and data fitted to a 1:1 binding model to obtain kinetic and affinity characterisation.

aggregated dGAE [2] = target: T2, aggregated dGAE (human, UniProt P10636 614-708, limits assumed); test: capture ELISA, mAb coated at 1 µg/ml, S1G2 scAb detection
T2 construct: dGAE aggregated in vitro with DTT, 700 rpm, 37 C, 24 h; also called dGAE aggregates; dGAE agg

tau peptide 145-157 = target: T3, tau peptide 145-157 (human); test: ELISA
T3 peptide: ADGKTKIATPRGA
Description: (§1) A series of binding ELISA was performed using various truncated versions of the tau protein and 13mer peptide libraries spanning the entire hT40 molecule for mapping the epitopes of anti-tau scAbs (Full list of protein antigens used is given in Table 14). In general, ELISA plates were coated with 1 μg/ml hT40 or dGA or dGAE or other truncated versions of the protein and in the case of biotinylated peptides, plates were coated with 5 μg/ml Streptavidin followed by 1 μg/ml biotinylated peptide. The plates were blocked with 2% MPBS and scAb samples added at desired starting concentrations and double diluted across the plate. Binding was detected using anti-Human C Kappa HRP conjugated secondary antibody and the resulting immunoreaction was developed and absorbance values measured as described above.

[3] = target: T4, human tau (hT40) with P301S and G335D of Line 66 mice (human, UniProt P10636 1-758); test: Western blot
T4 construct: transgene product in brain homogenate or plasma; also called L66 human tau

aggregated dGAE [4] = target: T2, aggregated dGAE; test: capture ELISA, mAb coated at 1 µg/ml, aggregates titrated, S1G2 scAb detection
[5] = target: T1, full length human tau protein 2N4R …; test: SPR, scAb captured, tau analyte
Description: (§2) The capture antibody was diluted 1/100 in 10 mM Sodium acetate buffer pH 5.0 and passed over the activated chip surface for a period of at least 420 s. Final ligand immobilisation levels over 12,000 RU were deemed to be satisfactory.
(§3) The scAb to be tested was added only to flow cell 2 so that flow cell 1 could act as a control to subtract any interaction with the analyte and the chip surface. […] The multi-cycle protocol was as follows-Three start-up cycles composed of an initial capture, to the desired level, of the scAb to be tested was performed followed by a 30 s injection of glycine buffer pH 2.0 after each cycle to regenerate the chip surface. […] The target was added for a 120 s association period and 420 s dissociation period followed by another regeneration, 30 s injection of glycine buffer pH 2.0 in between each cycle.
(§4) The single cycle kinetics protocol was similar and utilised the same level of scAb capture. […] In single cycle kinetics the regeneration step was performed only after the final analyte concentration was added. Binding responses were analysed in Biacore X100 evaluation software and data fitted to a 1:1 binding model to obtain kinetic and affinity characterisation.

[6] = target: T1, full length human tau protein 2N4R …; test: hT40 ELISA
tau fragment 369-391 = target: T5, tau fragment 369-391 (human); test: ELISA
T5 peptide: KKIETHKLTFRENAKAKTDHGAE
Description: as §1

[7] = target: T1, full length human tau protein 2N4R …; test: Biacore
Description: as §2, §3, §4

dGAE (tau 297-391) [8] = target: T6, dGAE (tau 297-391) (human, UniProt P10636 614-708); test: direct ELISA
T6 construct: monomer; also called dGAE95

tau fragment 369-390 [9] = target: T7, tau fragment 369-390 (human); test: direct ELISA
T7 peptide: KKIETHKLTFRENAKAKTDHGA

[10] = target: T1, full length human tau protein 2N4R …; test: sandwich ELISA, S1D12 mAb capture, scAb detection
Description: Full length tau (hT40), at 1 μg/ml starting concentration was added to designated wells and double diluted across rest of the plates and left to incubate at R/T for 1 h. A series of detection scAbs with varying epitope recognition properties were added at 10 μg/ml to designated wells (FIG. 22). For colourimetric detection HRP conjugated anti-HuCk secondary antibody was used and the resulting immunoreaction was developed and absorbance at 450 nm measured as described previously. Cut-off point for a positive binding event was an absorbance value of 0.3 following background subtraction. In order to enhance the assay sensitivity, a chemiluminescent detection method was adopted where 50 μL SuperSignal ELISA Femto Substrate (Thermo Scientific) was added to each well following incubation with anti-HuCK HRP antibody and subsequent washing. The luminescence was read using Clariostar Plus microplate reader. A further modification to this protocol was done where various detection scAbs were directly conjugated with HRP and detected using chemiluminescent protocol as before.

dGA (tau 297-390) = dGA (tau 297-390) (human, UniProt P10636 614-707); test: ELISA
Description: as §1

dGAE (tau 297-391) [11] = target: T6, dGAE (tau 297-391); test: direct ELISA; remark: listed apart in the source
tau fragment 369-390 [12] = target: T7, tau fragment 369-390; test: direct ELISA
mouse tau = target: T8, mouse tau (mouse, UniProt P10637 2-733); test: Western blot of brain homogenates
T8 construct: endogenous protein of mouse brain or plasma; also called endogenous mouse tau

[13] = target: T9, human tau fragment 296-390 of Line 1 mice (human, UniProt P10636 613-707); test: Western blot of brain homogenates
T9 construct: also called L1 fragment; 10-kDa tau fragment

T1 sequence (P10636 other isoform, or with tags, fused parts or gaps limits assumed): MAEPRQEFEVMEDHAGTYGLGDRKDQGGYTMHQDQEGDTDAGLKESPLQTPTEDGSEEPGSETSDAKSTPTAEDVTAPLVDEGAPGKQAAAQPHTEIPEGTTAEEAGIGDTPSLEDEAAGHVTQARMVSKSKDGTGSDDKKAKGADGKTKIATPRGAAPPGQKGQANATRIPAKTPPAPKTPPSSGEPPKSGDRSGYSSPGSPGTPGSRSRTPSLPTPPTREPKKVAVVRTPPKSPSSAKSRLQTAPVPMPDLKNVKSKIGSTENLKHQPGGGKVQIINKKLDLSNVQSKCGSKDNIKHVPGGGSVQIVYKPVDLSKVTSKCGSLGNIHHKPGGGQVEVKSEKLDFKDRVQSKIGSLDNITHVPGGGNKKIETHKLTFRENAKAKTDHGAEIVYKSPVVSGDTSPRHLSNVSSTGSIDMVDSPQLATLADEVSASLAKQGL
T4 sequence (P10636 other isoform, or with tags, fused parts or gaps P301S G335D P301S G335D limits assumed): as the sequence (P10636 other isoform, or with tags, fused parts or gaps limits assumed) above, with P301S, G335D counted along it
T8 sequence (P10637 other isoform, or with tags, fused parts or gaps limits assumed): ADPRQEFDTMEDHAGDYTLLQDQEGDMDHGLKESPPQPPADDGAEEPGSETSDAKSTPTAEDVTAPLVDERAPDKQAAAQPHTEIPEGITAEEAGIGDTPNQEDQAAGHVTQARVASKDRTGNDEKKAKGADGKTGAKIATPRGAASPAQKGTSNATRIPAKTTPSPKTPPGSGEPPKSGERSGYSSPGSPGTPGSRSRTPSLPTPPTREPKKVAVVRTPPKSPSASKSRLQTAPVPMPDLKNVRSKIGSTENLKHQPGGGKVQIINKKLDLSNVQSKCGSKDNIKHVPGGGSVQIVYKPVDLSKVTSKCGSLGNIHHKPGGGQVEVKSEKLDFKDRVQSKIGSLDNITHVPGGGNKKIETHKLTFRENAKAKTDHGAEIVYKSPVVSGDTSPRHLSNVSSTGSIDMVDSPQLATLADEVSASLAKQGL

B1: CA4 mAb (antibody, mouse IgG2a, V domains shown)
VH: QVQLQESGPSLVKPSQTLSLTCTVSGFSLTSYSVYWVRQAPGQALEWISIMYASGRVDYNPALKSRLSITRDTSKSQFSLSLSSVTTEDTAVYYCTRGIENWGPGLLVTVSS
VL: DIQVTQSPSSLSASLTERVSITCRTSQSVNNYLSWYQQKPGQAPKLLIYYATRLYTDVPSRFSGSGSGTDYTLTITSLEADDTATYYCLQYDSTPLAFGGGTNVEIKG
notes: sheep-mouse IgG2a chimeric mAb; also called CA4 antibody
- Kd [1]: 1.3 nM
- koff [1]: 0.00128 s⁻¹
- kon [1]: 1.02e+06 M⁻¹ s⁻¹
- binding result (aggregated dGAE [2]): no binding (tested: 800 nM)

B2: 3aD6 scAb (scFv, not shown: small tags and cut ends)
scFv: QVQLQESGPSLVKPSQTLSLTCTVSGFSLTSNAVIWVRQAPGKAPEWVALIDVDGDAAYDPALKSRLSITRDTSKSQVSLSLRSVTTEDTAVYYCARDYGSWGYVSDIDYWGPGLLVTVSSEGKSSGASGESKVDDQAVLTQPSSVSGSLGQRVSITCSGSDIGGADVGWFQQVPGSGLRTLIYDNDNRPSGVPDRFSGSKSGNTATLTISSLQPEDEADYFCGTYSGANYGIFGSGTRLTVLG
notes: scAb
- binding result (tau peptide 145-157): binds

B3: S1D12 mAb (antibody, mouse IgG2a, V domains shown)
VH: QVQLQESGPSLVKPSQTLSLTCTVSGFSLNNNAVGWVRQAPGKVPESLVGCSSDGTCYYNSALKSRLDITRDTSKNQISLSLSSVTTDDAAVYYCTRGHYSIYGYDYLGTIDYWGPGLLVTVSS
VL: QAVLTQPSSVSGSLGQRVSITCSGSSSNVGGGNSVGWYQHLPGSGLKTIIYDTNSRPSGVPDRFSGSRSGNTATLTINSLQAEDEGDYYCVTGDSTTHDDLVGSGTRLTVLG
notes: sheep-mouse IgG2a chimeric mAb; also called S1D12 antibody; SD12
- binding result [3]: binds
- Kd [1]: 0.101 nM
- koff [1]: 4.09e-05 s⁻¹
- kon [1]: 406000 M⁻¹ s⁻¹
- EC50 (read off the curve) (aggregated dGAE [4]): ~30 nM

B4: 3aA6 scAb (scFv, not shown: small tags and cut ends)
scFv: QVRLQESGSSLVKPSQTLSLVCTVSGFPLTSNAVGWVRQAPGKAPEWLGLIDIDGDTAYNPALESRLSITRDTSKSQVSLSLSSVAIEDTAVYYCARHYDKWGYADSIDYWGPGLLVTVSSEGKSSGASGESKVDDQALLTQPSSVFGSLGQRVSITCSGSSSNVGYGDYVGWYQQVPGSAPKLLIYDATTRASGVPDRFSGSRSGNTATLTISSLQAEDEADYYCASYQNERSGVFGSGTRLTVLG
notes: scAb
- binding result (tau peptide 145-157): binds
- Kd [5]: 989 nM
- koff [5]: 0.0188 s⁻¹
- kon [5]: 19000 M⁻¹ s⁻¹

B5: S1D9 scAb (scFv, not shown: small tags and cut ends)
scFv: QVQLQESGPSLVKPSQTLSLTCTVSGFSLTSNSVGWVRQAPGKAPEWVAGIDSDGEEGYNPALNSRLSITRDTSKNQVSLSLSRVTSEDTAVYYCGRTYRTDGYAYGYVQAIDYWGPGLLVTVSSEGKSSGASGESKVDDRVMLTQPPSVSGSPGQTVSITCSGSFIGISSVGWFQQLPGSGLRTVIFASDGRPSGVPDRFSNSKSGNTATLTISSLQAEDEADYFCGSSDRTQYTGVFGSGTRLTVLS
notes: scAb
- EC50 (read off the curve) [6]: ~1 µg/mL

B6: S1G10 scAb (scFv, not shown: small tags and cut ends)
scFv: QVQLQESGPSLVKPSQTLSLTCTVSGFSLTSNSVGWVRQAPGKAPEWVAGIDTDGEEGYNPALNSRLSITRDTSKSQVSLSLSSVTSEDTAVYYCGRSYRADGLAYGYVQAIDYWGPGLLVTVSSEGKSSGASGESKVDDQAVLTQPSSMSGSLGQRVSITCSGSFIGISSVGWFQQLPGSGLRTIIVASDGRPSGVPDRFSMSKSGNTATLTISSLQAEDEADYFCGSSDRTQYTGVFGSGTRLTVLG
notes: scAb
- binding result (tau fragment 369-391): binds
- Kd [7]: 0.4 nM
- EC50 (read off the curve) (dGAE (tau 297-391) [8]): ~0.9 µg/mL
- binding result (tau fragment 369-390 [9]): binds
- LoD chemiluminescence detection [10]: 0.12 ng/mL
- LoD colourimetric detection [10]: 2 ng/mL

B7: S1B1 scAb (scFv, not shown: small tags and cut ends)
scFv: B6 scFv with T30S, G96V, A101T, M150V, I186V, M203N
notes: scAb
- binding result (dGA (tau 297-390)): binds
- binding result [6]: binds
- binding result (dGAE (tau 297-391) [8]): binds

B8: S2C6 scAb (scFv, not shown: small tags and cut ends)
scFv: QVQLQESGPSLVKPSQTLSLTCTVSGFSLISNSVGWVRQAPGKAPEWVAGIDTDGEEGYNPALKSQYAASDPDTSKSQVSLSLSSVTSEDTAVYYCGRTYRTDGFAYGYVQAIDYWGPGLLLTISSEGKSSGASGESKVDDQAVLTQPSSVSGSLGQRVSITCSGSFIGISSVGWFQQLPGSGLRTIIVASDGRPSGVPDRFSMSKSGNTATLTISSLQAEDEADYFCGSSDRTQYTGVFGSGTRLTVLG
notes: scAb
- EC50 (read off the curve) (dGAE (tau 297-391) [11]): ~0.8 µg/mL
- EC50 (read off the curve) (tau fragment 369-390 [12]): ~2 µg/mL

B9: CC7 mAb (antibody, mouse IgG2a, V domains shown)
VH: QVQLQESGPSLVKPSQTLSLTCTVSGFSLTSNAVIWVRQAPGKAPEWVALIDVDGDAAYDPALKSRLSITRDTSKSQVSLSLRSVTTEDTAVYYCARDYGSWGYVSDIDYWGPGLLVTVSS
VL: RVVRTQPSSVSGSLGQRVSITCSGSYITGSSVGWFQQVPGSGLKTVIYDNNDRPSGVPDRFSGSKSGDTATLTISSLQAEDEADYYCASYDTSNIGLFGSGTRLTVLG
notes: sheep-mouse IgG2a chimeric mAb; also called CC7 antibody
- binding result [3]: binds
- binding result (mouse tau): no binding
- binding result [13]: no binding
- Kd [1]: 6.9 nM
- koff [1]: 0.0316 s⁻¹
- kon [1]: 4.58e+06 M⁻¹ s⁻¹

B10: E2E8 mAb (antibody, mouse IgG2a, V domains shown)
VH: QVQLQESGPSLVKPSQTLSLTCTVSGFSLTDRGVAWVRQAPGKALEWVGTMRSGGTIDYNPALKSRLSITRDTSKSQVFLSLSSVTTEDMAMYYCARGYLSGDRYAWGRGLLVTVSS
VL: QAVLTQPSSVSKSLGQSVSIACSGSRSDIGYGNYVSWFQQIPGSAPKLLIYDTNTRASGVPDRFSGARSGNTATLTINSLQAEDEADYYCANIDSSRSHLFGSGTRLTVLG
notes: sheep-mouse IgG2a chimeric mAb
- EC50 (read off the curve) (aggregated dGAE [4]): ~80 nM
